In the nanobody polyreactivity screen of Harvey et al. (2022):

Assay: yeast display, Sf9 membrane polyspecificity reagent, FACS + sequencing; frameworks hold sequencing errors
How it was run: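 After 36–48 hours of galactose induction, yeast (Saccharomyces cerevisiae BJ5465) displaying a synthetic nanobody library were stained at 4 °C for 1 hour with 10% biotinylated, detergent-solubilized Sf9 membrane reagent. Streptavidin microbeads enriched the stained cells before FACS sorting into low and high (top ~1%) gates on anti-HA and streptavidin fluorescence. Each clone's polyreactivity label reflects its gate of origin.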

Row | Sequence | polyreactivity (PSR sort gate)
1 | QVQLVESGGGLVQAGGSLRLSCAASGLTFNYYDMGWYRQAPGKERELVAAISRSGTNTSYADSVKGRFTISRDNAKNTVYLQMNSLKPEDTAVYYCNAAGVYLAAGPFTANFNYNYWGQGTQVTVSS | low polyreactivity
2 | QVQLVESGGGLVQAGGSLRLSCAASGLTFPGYVMGWYRQAPGKERELVAAITNGGRTYYADSVKGRFTISRDNAMNTVYLQMNSLKPEDTAVYYCNTARGSKDPPHYYWGQGTQVTVSS | high polyreactivity
3 | QVQLVESGGGLVQAGGSLRLSCAASGLTFPKYAMGWYRQAPGKERELVAAITQRGGSTYYADSVKGRFTISRDNAKNTVYLQMNSLNPEDTAVYYSNARRRDYNNRREFDYWGQGTQVTVSS | high polyreactivity
4 | QVQLVESGGGLVQAGGSLRLSCAASGLTFPPYAMGWSRQAPGNERELVAAISRIRGRTYYADSVKGRFTISRDTAKNTVYLQMNSLKPEDTAVYYCAADGIKGGDEYDYWGQGTQVTVSS | high polyreactivity
5 | QVQLVESGGGLVQAGGSLRLSCAASGLTFPPYAMGWYRQAPGKERELVAAISWNGGNTYYADSVKGRFTISRDNAKNTVYLQMNSLKPEDTAVYYCAAKRGTQGMYYWGQGTQVTVSS | high polyreactivity
6 | QVQLVESGGGLVQAGGSLRLSCAASGLTFPSYAMGWSRQAPGKERELVAAISRRSGSTYYADSVKGRFTICGDNAKYTVYLQMISLKPEDTAVYYCTTRRGERGYWGQGTQVTVSS | high polyreactivity
7 | QVQLVESGGGLVQAGGSLRLSCAASGLTFPSYAMGWYRQAPGKERELVAVISSSGGRTYYADSVKGRFTISRDNAKNTVYLQMNSLIPEDTAVYYCNVGGFLRRRSYDYWGQGTQVTVSS | high polyreactivity
8 | QVQLVESGGGLVQAGGSLRLSCAASGLTFPYNLMGWYRQAPGKERELVASITSVGTTDYADSVKGRFTISRDNAKNTVYLQMNSLKPEDTAVYYCAADVTMFYWWYGKEDYDFWGQGNQVTVSS | low polyreactivity
9 | QVQLVESGGGLVQAGGSLRLSCAASGLTFQHYAMGWYRQAPGKERELVASISYSGGGTYADSVKGRFTISRDNAKNTVYLQMNSQKPEDTAVYYCATSLQRQFDYWGQGTQVTVSS | low polyreactivity
10 | QVQLVESGGGLVQAGGSLRLSCAASGLTFQLYGMGWYRQAPGKERELVAAISGSGGRTYYADSVKGRFTISRDNAKNTVYLQMNSLKPEDTAVYYCAARPGSGRSYTSDYWGQGTQVNVSS | high polyreactivity
11 | QVQLVESGGGLVQAGGSLRLSCAASGLTFQSNAMGWYRQAPGKEREFVAAITSGGNTYYADSVKGRFTISRDNAKNTVYLQMNSLKPEDTAVYYCNADYQDEEDDYWGQGTQVTVSS | low polyreactivity
12 | QVQLVESGGGLVQAGGSLRLSCAASGLTFQVYAMGWYRQAPGKERELVAGITRAGSTYYADSVKGRFTISRDNAKNTVYLQMNSLKPEDTAVYYCAARQPPPYYYWGQGTQVNVSS | high polyreactivity
13 | QVQLVESGGGLVQAGGSLRLSCAASGLTFQYYAMGWYRQAPGKEREFVAAITRRGGNTYYADSVKGRFTISRDNAKNTVYLQMNSLKPEDTAVYYCAARYLQGRYDYWGQGTQVTVSS | high polyreactivity
14 | QVQLVESGGGLVQAGGSLRLSCAASGLTFRHYAMGWYRQAPGKERELVAAITSSGGSTYYADSVKGRFTISRDNAKNTVYIQMNSLKPEDTAVYYCNARWSYFHAVSGVASDYWGQGTQVTVSS | high polyreactivity
15 | QVQLVESGGGLVQAGGSLRLSCAASGLTFRLNAMGWYRQAPGKERELVAAITSIADRTYYADSVKGRFTISRDNAKNTVYLQMNSLKPEDTAVYYCNVTPRRAQVRIGNYWGQGTQVTVSS | high polyreactivity
16 | QVQLVESGGGLVQAGGSLRLSCAASGLTFRRYAMGWYRPAPGKEREFVAAITHNGGRTYYADSVKGRFTISRDNAKNTVYLQMNSLKPEDTAVYYCNAGGQRVNYDYWGQGTQVTVSS | high polyreactivity
17 | QVQLVESGGGLVQAGGSLRLSCAASGLTFRRYAMGWYRQAPGKDRELVAAISRGDNTNYADSVKGRFTISRDNAKNTVYLQMTSLKPEDTAVYFCAPRLWIRGNFNYWGQATQVTVSS | high polyreactivity
18 | QVQLVESGGGLVQAGGSLRLSCAASGLTFRRYDMGWYSQAPGKERELVAAITGGGSTYYADSVKGRFTISRDNAKNTVYLQMNSLKPEDTAGYYCAAGTWYWSYAYDYWGQGTQVTVSS | high polyreactivity
19 | QVQLVESGGGLVQAGGSLRLSCAASGLTFRSYSMGWYRQAPGKEREFVAAITGSGDTTYYADSVKGRFTISRDNAKNTVYLQMNSLKPEDTAVYYCNADRDYLWITLYEYWGQGTQVTVSS | high polyreactivity
20 | QVQLVESGGGLVQAGGSLRLSCAASGLTFRTYAMGWYRQAPGKERELVAAISRSGSTTYYADSVKGRFTISRDNAKNTVYLQMNSLKPEDTAVYYCAAVGIRWLEYWGQGTQVTVSS | high polyreactivity
21 | QVQLVESGGGLVQAGGSLRLSCAASGLTFRYYAMGRNRPARGKEREVVAVITTSTGTTYYADSVKGRFTISRDNAKNTVYLQMNSLKPEDTPVYYCATDTGAYLYSMYDYWGQVTQVTVSS | low polyreactivity
22 | QVQLVESGGGLVQAGGSLRLSCAASGLTFRYYAMGWYRQAPGKERELVATITRAGRTNYADSVKGRFTISRDNAKNTVYLQMNSLKPEDTAVYYCATKRVLTGYDSWGQGTQVTVSS | high polyreactivity

Row | Sequence | polyreactivity (PSR sort gate)
23 | QVQLVESGGGLVQAGGSLRLSCAASGLTFSAYTMGWYRQAPGKERELVAAIDRSGSTYYADSVKGRFTISRDNAKNTVYLQMNSLKPEDTAVYYCAADAVRKDLFDYWGQGTQVTVSS | low polyreactivity
24 | QVQLVESGGGLVQAGGSLRLSCAASGLTFSLYAMGWYGQAPGKEREFVAAISSSGGSTYYADSVKGRFTISRDNAKNTVYLQMNSLKPEDTAVYYCNVRRKSRMGYWGQGTQVTVSS | high polyreactivity
25 | QVQLVESGGGLVQAGGSLRLSCAASGLTFSLYAMGWYRQAPGKERELVAAISSSGSTYYADSVKGRFTISRDNAKNTVYLQMNILKPEDTAVYYFAADAPWWIDPIAGNYWGQGTQVTVSS | high polyreactivity
26 | QVQLVESGGGLVQAGGSLRLSCAASGLTFSRYAMGWYRQAPGKERELVAAISGSGGSTYYADSVKGRFTISRDNAKNTVYLQMNSLKPEDTAVYYCNKYRATNSARDYWGQGTQVTVSS | high polyreactivity
27 | QVQLVESGGGLVQAGGSLRLSCAASGLTFSRYAMGWYRQAPGKERELVATIRSAGSTYYADSVKGRFTISRDNAKNTVYLQMNTLKPEDTAVYYCATAPYYHVKQRYYYWGQGTQVTVSS | high polyreactivity
28 | QVQLVESGGGLVQAGGSLRLSCAASGLTFSRYARGWYRQAPGKERELVAAITGSGGNTYYADSVKGRFTISRDNAKNTVYLQMNSLKPEETAVYYCAARDRGDVTRRKGYYWGQGTQVTVSS | high polyreactivity
29 | QVQLVESGGGLVQAGGSLRLSCAASGLTFSWYAMGWYRPAPGKERELVAAISSGGSTYYADSVKGRFTISRDNAKNTVYLQMNSLKPEDTAVYYCNAESYYYGFFWSGFRYGYWGQGTQVTVSS | high polyreactivity
30 | QVQLVESGGGLVQAGGSLRLSCAASGLTFTGNAMGWNRQAPGKEREFVAAIRWSAGSTYYADSVKGRFTISRDNAKNTVYLQMNSLKPEDSAVYYCNAGLNVSGHYPNDYWGQGTQVTVSS | low polyreactivity
31 | QVQLVESGGGLVQAGGSLRLSCAASGLTFTGYAMGWYRQAPGKERELVAAISSRGGSTYYADSVKGRFTISRDNAKNTVYLQMNSLKPEDTAVYYCAARASSGARGLDYWGQGTQVTVSS | high polyreactivity
32 | QVQLVESGGGLVQAGGSLRLSCAASGLTFTGYAMGWYRQAPGKERELVASISRSGASTFYADSVKGRFTISRDNAKNTVYLQMNSLKPEDTAVYYCAAVPGWLTSRYYYWGQGTHVTVSS | high polyreactivity
33 | QVQLVESGGGLVQAGGSLRLSCAASGLTFTHYARGWYREAPGKERELVAAISRSGGTTYYADSVKGRFTISRDNAKNTLYFQMNSLKPEDTAVYYCAARWWYRYNYDYWGLGTQVTVSS | high polyreactivity
34 | QVQLVESGGGLVQAGGSLRLSCAASGLTFTSNVMGWYRQAPGKERELVAAISSGGSTYYADSVKGRFTISRDNAKNTVYLQMNSLKPEDTAVYYCNTKLWGQYDYWGQGTQVTVSS | low polyreactivity
35 | QVQLVESGGGLVQAGGSLRLSCAASGLTFTYYAMGWYRQAPGKERELVAAISWSGGSTYYADSVKGRFTISRDNAKNTVYLQMNSLKPEDTAVYYCAAATAYYRYRGGYDYWGQGTQVTVSS | high polyreactivity
36 | QVQLVESGGGLVQAGGSLRLSCAASGLTFTYYAMGWYRQAPGKERELVAVISRRGGSTYYADSVKGRFTISRDNAKNTVYLQMNSLKPEDTAVYYCAATNLQSAYDYWGHGTQVTVSS | high polyreactivity
37 | QVQLVESGGGLVQAGGSLRLSCAASGLTFVDYAMGWYRQAPGKERELVASIDYSGSSTYYADSVKGRFTISRDNAKNTVYLQMNSLKPEDTAVYYCAATDSGEYWGQGTQVTVSS | low polyreactivity
38 | QVQLVESGGGLVQAGGSLRLSCAASGLTFVENAMGWYRQAPGKERELVASISNGGSTYYADSVKGRFTISRDNAKNTVYLQMNSLKQEDTAVYYCAAGYWAGYGSTAPYDYWGQGTQVTVSS | low polyreactivity
39 | QVQLVESGGGLVQAGGSLRLSCAASGLTFVPNAMRWYRQAPGKERELVAAISNNGGRTYYADSVKGRFTISRDNAKNTVYLQMNSLKPEDTAVYYCAKSLSPGERHSYDYRGQGTQVTVSS | high polyreactivity
40 | QVQLVESGGGLVQAGGSLRLSCAASGLTFVPYAMGWYRQAPGKERELVAAIDSGGRTNYADSVKGRFTISRDNAKNTVYLQMNSLKPEDTAVYYCAVEWLSYYDENDYWGQGTQVTVSS | high polyreactivity
41 | QVQLVESGGGLVQAGGSLRLSCAASGLTFVQYTMGWYRQAPGKERELVAVITSASSTNYADSVKGRFTISRDNAKNTVYLQMNSLKPEDTAVYYCNATTYPYYTNSYQYEYWGQGTQVTVSS | low polyreactivity
42 | QVQLVESGGGLVQAGGSLRLSCAASGLTFVTYVMGWYRQAPGKERELVAAISYSGGSTYYADSVKGRFTISRDNAKNTVYLQMNSLKPEDTAVYYCAAEWYGYQEDDYRGQGTQVTVSS | low polyreactivity
43 | QVQLVESGGGLVQAGGSLRLSCAASGLTFVVYAMGWYRQAPGKERELVAAISSTGNTYYADSEKGRFTISRDNAKNTVYLQMNSLKPEDTAVYYCAAERSFYWYHFDYWGQGTQVTVSS | high polyreactivity
